# Measurements published in patent US11491212.
# Target: Factor X, P00742
# Sequence (P00742 whole entry, looked up): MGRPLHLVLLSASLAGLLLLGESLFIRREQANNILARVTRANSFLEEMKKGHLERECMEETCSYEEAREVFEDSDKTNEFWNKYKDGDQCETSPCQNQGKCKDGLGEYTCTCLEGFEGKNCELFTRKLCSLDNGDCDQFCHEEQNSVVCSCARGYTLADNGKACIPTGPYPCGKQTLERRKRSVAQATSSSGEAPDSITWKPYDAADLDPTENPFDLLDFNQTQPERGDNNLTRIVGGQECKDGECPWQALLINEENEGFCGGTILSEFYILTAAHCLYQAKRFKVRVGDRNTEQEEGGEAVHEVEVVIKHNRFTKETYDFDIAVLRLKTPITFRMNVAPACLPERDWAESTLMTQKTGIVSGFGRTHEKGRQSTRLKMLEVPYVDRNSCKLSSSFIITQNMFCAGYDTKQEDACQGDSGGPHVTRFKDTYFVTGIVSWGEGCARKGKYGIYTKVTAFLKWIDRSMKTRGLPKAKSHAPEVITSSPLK
Protein,% of WT kcat/KM [%],KM [µM],kcat/KM [M⁻¹ s⁻¹]
FIXa-Y155F/K247N/N249S/R318Y/E410N (protein) chain 1: not shown chain 2: not shown,155,0.0488,7.2e+07
FIXa-K247N/N249S/R318Y/R338E/T343R/R403E (protein) chain 1: not shown chain 2: not shown,,0.0284,4.1e+08
FIXa-Y155F/K247N/N249S/R318Y/R403E (protein) chain 1: not shown chain 2: not shown,34,0.109,1.6e+07
FIXa-Y155F/R338E/T343R/R403E/E410S (protein) chain 1: not shown chain 2: not shown,,0.0239,2.9e+08
FIXa-R338E/T343R/R403E (protein) chain 1: not shown chain 2: not shown,,0.0235,3.1e+08
FIXa-Y155F/K247N/N249S/R318Y/T343R (protein) chain 1: not shown chain 2: not shown,549,0.0421,2.5e+08
FIXa-Y155F/K247N/N249S/R318Y/R338E/T343R/R403E (protein) chain 1: not shown chain 2: not shown,,0.0365,2.9e+08
FIXa-R318Y/R338E/T343R/R403E/E410S (protein) chain 1: not shown chain 2: not shown,,0.019,4.4e+08
FIXa-Y155F/K247N/N249S/T343R/R403E (protein) chain 1: not shown chain 2: not shown,,0.0596,8.5e+07
FIXa-Y155F/K247N/N249S/R338E/T343R/R403E/E410N (protein) chain 1: not shown chain 2: not shown,,0.0264,3.7e+08
FIXa-K247N/N249S/R338E/T343R/R403E/E410N (protein) chain 1: not shown chain 2: not shown,930,0.0251,4.3e+08
FIXa-Y155F/K247N/N249S/R318Y/R338E (protein) chain 1: not shown chain 2: not shown,632,0.0263,2.9e+08
FIXa-Y155F/N260S/R338E/T343R/R403E (protein) chain 1: not shown chain 2: not shown,,0.0692,9.4e+07
FIXa-Y155F/I251S/R338E/T343R/R403E (protein) chain 1: not shown chain 2: not shown,,0.0196,3e+08
